Two proteins from publication PMC3893156 can be followed below.

Substrate in data set [1]: O=P(O)(O)O[C@H]1O[C@H](CO)[C@@H](O)[C@H](O)[C@H]1O
Nature of the data set: Michaelis-Menten kinetics of purified enzyme. Format: biochemical, Homo sapiens. The following applies: Mg2+; Glc-1,6-P2 activator.

Substrate in data set [2]: O=P(O)(O)O[C@H]1O[C@H](CO)[C@@H](O)[C@H](O)[C@@H]1O
Nature of the data set: Michaelis-Menten kinetics of purified enzyme. Format: biochemical, Homo sapiens. The conditions noted are these: Mg2+; Man-1,6-P2 activator.

Substitutions are numbered along the chain they refer to. Names and notes keep the numbering of the source.

B1: Phosphomannomutase 2 (wt-PMM2) (Homo sapiens) (protein)
chain: MAAPGPALCLFDVDGTLTAPRQKITKEMDDFLQKLRQKIKIGVVGGSDFEKVQEQLGNDVVEKYDYVFPENGLVAYKDGKLLCRQNIQSHLGEALIQDLINYCLSYIAKIKLPKKRGTFIEFRNGMLNVSPIGRSCSQEERIEFYELDKKENIRQKFVADLRKEFAGKGLTFSIGGQISFDVFPDGWDKRYCLRHVENDGYKTIYFFGDKTMPGGNDHEIFTDPRTMGYSVTAPEDTRRICELLFS
As a reminder, the Km is the substrate concentration at which the rate is half of its maximum. B1: the Km worked out at 8.2 ± 1.4 µM in data set [1] and 16.0 ± 1.5 µM in data set [2].

B2: Phosphomannomutase 2 (F119L-PMM2) (Homo sapiens; F119L) (protein)
chain: B1 chain with F119L
Turning to B2, the results for the Km in data set [1] and in data set [2] were 15.5 ± 1.6 µM and 11.8 ± 1.0 µM, respectively.
